Test system: K4 kissing-loop RNA reporter
Test: apparent KD of K4 kissing-loop reporter; higher = weaker reporter binding
Conditions: Eterna round: R107
Method: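 RNA-MaP round R107: designed RNA switches with theophylline, tryptophan, arginine or FMN aptamers are transcribed on-chip within common flanks. They are titrated with a labelled K4 kissing-loop RNA reporter in RNA-MaP buffer (100 mM Tris pH 7.5, 80 mM KCl, 4 mM MgCl2), without ligand or with the indicated ligand. Median apparent KD per design.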

[1] = input ligand: theophylline 20 uM
[2] = input ligand: tryptophan 2.4 mM
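Note: bound reporter read as fluorescence of individual clusters on recovered sequencing chips by microscopy, with normalized cluster intensities fitted with a binding model.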

Sequence | apparent KD of K4 kissing-loop reporter (input ligand: FMN 200 uM) [nM] | apparent KD of K4 kissing-loop reporter (input ligand: arginine 13.2 mM) [nM] | apparent KD of K4 kissing-loop reporter (input ligand: none) [nM] | apparent KD of K4 kissing-loop reporter [1] [nM] | apparent KD of K4 kissing-loop reporter [2] [nM]
AACUGUCAAGGACAACAUUACUGAGGUGAUACCAGCAUCGAAAGAUGCCCUUGGCAGCACUGACUUGCAGUGAUGUUGCAAGUAA [BrourdMod 8 - Jieux - Exclusion - Theophylline A] | 208 | 162 | 199 | 215 | 189
AAGCAGUCACUCGAAUCCAUCGAAGAUGGACGAGGACCGGUACGGCCGCCACUCGGAGUGAUGUUCCGAAGACUGCAAAAUAAAA | 306 | 246 | 342 | 345 | 482
UGGGUGUAGUGAUGUUAUAUAGAGAGUGAUACCAGUUUAGAGAAGAACCCUUGGCAGCAUAGAAGAGUAUCAUUGGAGGAGGAGG [ExTheophyl.Av] | 361 | 413 | 336 | 268 | 289
GCUACCUAUGCAGGAUAUGGUAUUACGAGUGAUGUUCGAGGCAUAUAGAGUGAUGUUCUAUAUCCACCAGAAGGGCAUAGGUAGC | 184 | 148 | 179 | 162 | 164
UAUUUAAAUAAAAUAAAAUAAAUUGCUGAUACCAGAGUCAAUUGACUCCCUUGGCAGCGGAUCGAGUGAUGUUCGUAAAAUUUAU [AK2.1 SS Theophylline A] | 27.4 | 57.7 | 30.8 | 58.5 | 31.9
AAUAAGGUCGCCGAUACCAGCGCAGGCAGAGCAAAGCUCUGCCAGGUAGUGAUGUUACCGCGCCCUUGGCAGCGGUGGCACGACC [Omei KL Theo B SS C v2] | 523 | 357 | 516 | 459 | 579
UGACGUAAAACCGUCGAAUCGCUGUGAGAAGGAGCGGUAAAAUUGCCAGGUAGGUCGCUCACAGCCUCACAGUGAUGUUGUGGGA [Sovetequ] | 468 | 104 | 246 | 199 | 162
AGUGUUAGGUUAGAUACCAGCCGUCCGUGGAUAACCCUCGGACCGCCAGUGAUGUUGGCAGGCCCUUGGCAGCUAACAGAACAGA [Beriisa] | 263 | 208 | 250 | 152 | 199
AGGGACUCUUCGGAGUCCCGGUUAAGGGAUACCAGUGAUGUUGGUCACCCUUGGCAGCCCAGAAACCAAGCCACCAAAGGUGGCA [Omei KL Theo A Exc A v2] | 150 | 127 | 133 | 211 | 121
ACCCUACUCGGGCGGCUAUACAGUUAAGCUAAGGAUAUGUAUUCGUACAGAAGGUAGAAGAAGCCGAGUGAUGUUCGACACGCCC [theeternabot_sameState_KL_FMN_A_24] | 557 | 386 | 544 | 293 | 413
UGUACCGAGUCAGGAUAUCAACGACUGACAAAGUCGGUCGAAUAUCCAGUGAUGUUGGAAAAUAACUGAGAAGGGACUUGGUACU [FmnBS 13 #SwitchBubble #StaticStem] | 194 | 629 | 1080 | 710 | 903
UUCUACGUGCAAGGAUAUCCAUACGCUGCCCAGCGGGUAGCGAUAUAUGGAGUGAUGUUCCAUGUAGGAGAAGGUGCACUGUCCU [Atrea] | 149 | 386 | 457 | 466 | 475
AUUUUUUACAGAAGGAGCGUGUUUUUAUAAUCAUUUAUCUUAGCGAGUGAUGUUCGCUUUACACAGGUAGGUCGCUGUUUAUUUA [JR_Nu_ExcArginiB_Sub028] | 119 | 130 | 121 | 121 | 85.7
GGAUAGGACACAGGAUAUGGUAGUGAUGUUACCAAACUGGUUAAACAUGUCAGAAAACUGGCAUGACCAGAAGGGUGUCCUAUCG [FmnBX 27 C11+G75] | 83.4 | 63.8 | 66.2 | 71 | 63.8
ACCUACGAUCACAAAAGUGAUUGUAGGAUCUAGGAUAUGCUGAAGAGCAGAAGGAGAGUGAUGUUCUCAUCUCACGAAAGUGAGA [whbob_Ex_FMNA__2th189] | 408 | 189 | 216 | 263 | 201
AAACUUGCAGUGAUGUUGCAAGUAGGUGAUACCAGCAUCGAAAGAUGCCCUUGGCAGCACCAUCUUGUAACAUAGGUAUCACCAA [(H1)-(H2)-(T1)-(T2)-(H)'-(T)'_Design4] | 208 | 208 | 194 | 326 | 225

Sequence | apparent KD of K4 kissing-loop reporter (input ligand: FMN 200 uM) [nM] | apparent KD of K4 kissing-loop reporter (input ligand: arginine 13.2 mM) [nM] | apparent KD of K4 kissing-loop reporter (input ligand: none) [nM] | apparent KD of K4 kissing-loop reporter [1] [nM] | apparent KD of K4 kissing-loop reporter [2] [nM]
GGUAGCUAGGUAGGAUAUAGCUAGUGGAGUGAUGUUCCACGAUACACGAGUGAUGUUCGUACCCUGCUAGAAGGGCCUAGCUACC | 114 | 159 | 168 | 172 | 161
CCAUCGCUAUUCGAUACCAGCUACUUAGUGAUGUUAAGUUUUUAUCCACUGUAGGUGGAAAGCCCUUGGCAGCGAAUAGUGAUGG [Theophylline B K4 26] | 442 | 357 | 474 | 234 | 417
GACGGGCAGUGAUGUUGCCGGUCUCUUGGACGAGGACCGGUACGGCCGCCACUCGAUCUGAUGCGGGAAUUGCAUCUUUUAAUAA [Raorbirabe] | 237 | 115 | 185 | 194 | 333
CAUAGGAAACUAUGUAUCUCUCCGACUGAAGGAGCGCGUGAAAACGCAGGUAGGUCGCAGAAUUUAACGGAGAGUGAUGUUCUCU [Ex Arginine A K4 10] | 345 | 295 | 338 | 385 | 344
CCGCGGCAAGCUCCGGAACCCAUAUUCGAUACCAGCCUUAUCACGGGCCCUUGGCAGCGAGCGUUAGUGAUGUUAGCGGCAUGGU [theeternabot_sameState_KL_Theo_A_27] | 528 | 256 | 311 | 276 | 384
CUUACCCAUCGGAUGGAUCAACUGCACACGAAGGAUAUACACACGGGUAGAAGGUCGGGAUUCCAGUGAUGUUGGAUGGUACGAC [theeternabot_exclusion_KL_FMN_A_29] | 87.2 | 96.5 | 91.3 | 98.7 | 74.2
GCAGCACCGAGUGAUGUUUGGUUCAGCGUGAAGGAUAUAAUAUCUGUUAGAAGGUCAAGUGAGAUUGUCGCGAAUCAGUUUUGAU [theeternabot_exclusion_KL_FMN_A_41] | 368 | 248 | 309 | 332 | 290
GGUAGCAUGGCGGCCGCCACUCAUCGCCUCCCAUCGUCGGGAAGAAUAAGUGUAGUGAUGUUACAGAGGACCGGGCCAUGCUACC | 472 | 386 | 898 | 494 | 268
GCCGUAGAUUGAAGGAGCGGACAGAUACGGGAAUCCAGUGAUGUUGGAAGGUAACUACUAGUCCAGGUAGGUCGCAAUCUACGGC | 143 | 128 | 136 | 146 | 129
UGAUAGGACAGAAGGAGCGGAAGUGAUGUUUCCAAAAGGUAAAGGUGUCAAAAGACACCCUUCCAGGUAGGUCGCUGUCCUAUCU [ArgBX 12 #Palindromic #SwitchBubble #StaticStem] | 119 | 124 | 113 | 126 | 103
CCUAUCUCAUACGAUACCAGUCAAUAUAAACGAGUGAUGUUCGAAAUAAUAUGCCAUCACGACCCUUGGCAGCGUAUGGGAUAGG [Ex Theophylline B K4 6] | 158 | 88.8 | 141 | 214 | 126
UCGAACGAUGGAAGGAGCGCUCGUCAGCCCUGCGAGUGAUGUUCGUGGGUAAAUAGUCGCGAGCAGGUAGGUCGCCAUCUUGAGC [Zainsotima] | 123 | 101 | 129 | 119 | 124
CAUAGGAAACUAUGUAUCUCUCUUACUGAAGGAGCGCGUGAAAACGCAGGUAGGUCGCAGAAUUUAAUAGAGAGUGAUGUUCUCU [Ex Arginine A K4 7] | 239 | 202 | 254 | 244 | 208
CUCGAGUGAUGUUCGUUUAUUUAUACAGAUACCAGUGAAUUUUAACACCCUUGGCAGCUGGUUGUAUCUUUGUUUUUUACACAAG [JR_Nu_ExcTheophyA_Sub024] | 191 | 297 | 211 | 338 | 154
ACAUGUUCCAGUGAUGUUGGCGUACGUGAUACCAGACGAAUAAAAGUCCCUUGGCAGCACAAAUAAGCCAAGAUAGGUGAAUGAU [#04 K4 Theophylline A Exclusion] | 403 | 272 | 495 | 538 | 405
GAAGGAGACAACAUCACUACUCCUUCAGACUAGGAUAUCAGGAAACUGAGAAGGAGUCUACUUGCAGUGAUGUUGCAAGAAUAAU [[F]''-[K]'-[F]'-[F1]-[F2]-[K1]-[K2]_Design2] | 167 | 123 | 146 | 148 | 118

— the supplement of paper PMC9170038
